From publication PMC11898728

Molecular target: RhoA (human) (UniProt P61586)
UniProt P61586, sequence (P61586 whole entry): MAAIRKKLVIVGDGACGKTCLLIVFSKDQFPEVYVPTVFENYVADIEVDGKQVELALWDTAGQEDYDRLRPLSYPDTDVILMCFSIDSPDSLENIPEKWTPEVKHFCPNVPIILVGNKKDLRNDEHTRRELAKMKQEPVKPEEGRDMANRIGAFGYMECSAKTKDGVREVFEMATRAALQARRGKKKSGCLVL

Substance “VopX (amino acids 26-252), purified (domain or fragment)” has an average exchange rate of RhoA in the presence of VopX (in vitro RhoGEF exchange assay with N-MAR-GTP; 1.5 µM GTPase, 0.75 µM N-MAR-GTP, 0.5 µM VopX) (µmol N-MAR-GTP/μmol GTPase/s) of 167.
